# Test results taken from the supplement of paper PMC10567573.
# B1: TRIM55 (parent)
# chain: ICPICLEMFTKPVVILPCQHNLCR
# Variants of: B1
# Assay: protein stability index of a GFP-peptide fusion (GPS, HEK-293T) (PSI 1-6); higher = more stable
# Conditions: c terminus: a fixed tail appended
# 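Note: lentivirally expressed fusions sorted by FACS into six bins by GFP to DsRed ratio, PSI derived from sequencing read proportions per bin multiplied by bin number.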
row,Variant,protein stability index
1,ICPICLEMFTKQVVILPCQHNLCR [P12Q],2.43
2,ICPICLEMFTKSVVILPCQHNLCR [P12S],2.59
3,ICPICLEMFTKCVVILPCQHNLCR [P12C],2.42
4,ICPICLEMFTKWVVILPCQHNLCR [P12W],1.97
5,ICPICLEMFTKMVVILPCQHNLCR [P12M],2.25
6,ICPICLEMFTKHVVILPCQHNLCR [P12H],2.04
7,ICPICLEMFTKTVVILPCQHNLCR [P12T],2.34
8,ICPICLEMFTKFVVILPCQHNLCR [P12F],1.55
9,ICPICLEMFTKVVVILPCQHNLCR [P12V],2.29
10,ICPICLEMFTKEVVILPCQHNLCR [P12E],2.55
11,ICPICLEMFTKIVVILPCQHNLCR [P12I],2.23
12,ICPICLEMFTKGVVILPCQHNLCR [P12G],2.25
13,ICPICLEMFTKDVVILPCQHNLCR [P12D],2.61
14,ICPICLEMFTKNVVILPCQHNLCR [P12N],2.99
15,ICPICLEMFTKRVVILPCQHNLCR [P12R],2.05
16,ICPICLEMFTKAVVILPCQHNLCR [P12A],2.19
17,ICPICLEMFTKYVVILPCQHNLCR [P12Y],1.8
18,ICPICLEMFTKKVVILPCQHNLCR [P12K],2.5
19,ICPICLEMFTKLVVILPCQHNLCR [P12L],2.02
20,ICPICLEMFTKPPVILPCQHNLCR [V13P],2.23
21,ICPICLEMFTKPNVILPCQHNLCR [V13N],2.92
22,ICPICLEMFTKPGVILPCQHNLCR [V13G],2.84
23,ICPICLEMFTKPAVILPCQHNLCR [V13A],2.37
24,ICPICLEMFTKPEVILPCQHNLCR [V13E],2.61

row,Variant,protein stability index
1,ICPICLEMFTKPWVILPCQHNLCR [V13W],1.89
2,ICPICLEMFTKPHVILPCQHNLCR [V13H],2.63
3,ICPICLEMFTKPTVILPCQHNLCR [V13T],2.62
4,ICPICLEMFTKPFVILPCQHNLCR [V13F],2.31
5,ICPICLEMFTKPCVILPCQHNLCR [V13C],2.21
6,ICPICLEMFTKPDVILPCQHNLCR [V13D],3.31
7,ICPICLEMFTKPRVILPCQHNLCR [V13R],2.19
8,ICPICLEMFTKPMVILPCQHNLCR [V13M],2.33
9,ICPICLEMFTKPSVILPCQHNLCR [V13S],2.58
10,ICPICLEMFTKPLVILPCQHNLCR [V13L],2.26
11,ICPICLEMFTKPQVILPCQHNLCR [V13Q],3.49
12,ICPICLEMFTKPYVILPCQHNLCR [V13Y],1.99
13,ICPICLEMFTKPKVILPCQHNLCR [V13K],2.15
14,ICPICLEMFTKPIVILPCQHNLCR [V13I],2.11
15,ICPICLEMFTKPVVILPCQPNLCR [H20P],2.23
16,ICPICLEMFTKPVVILPCQKNLCR [H20K],1.87
17,ICPICLEMFTKPVVILPCQTNLCR [H20T],1.54
18,ICPICLEMFTKPVVILPCQMNLCR [H20M],1.54
19,ICPICLEMFTKPVVILPCQRNLCR [H20R],1.45
20,ICPICLEMFTKPVVILPCQCNLCR [H20C],2.23
21,ICPICLEMFTKPVVILPCQVNLCR [H20V],1.34
22,ICPICLEMFTKPVVILPCQGNLCR [H20G],2.08
23,ICPICLEMFTKPVVILPCQNNLCR [H20N],1.88
24,ICPICLEMFTKPVVILPCQANLCR [H20A],2.22

row,Variant,protein stability index
1,ICPICLEMFTKPVVILPCQDNLCR [H20D],2.14
2,ICPICLEMFTKPVVILPCQQNLCR [H20Q],2.2
3,ICPICLEMFTKPVVILPCQFNLCR [H20F],2.77
4,ICPICLEMFTKPVVILPCQSNLCR [H20S],2.12
5,ICPICLEMFTKPVVILPCQLNLCR [H20L],1.91
6,ICPICLEMFTKPVVILPCQENLCR [H20E],1.68
7,ICPICLEMFTKPVVILPCQINLCR [H20I],1.45
8,ICPICLEMFTKPVVILICQHNLCR [P17I],2.18
9,ICPICLEMFTKPVVILNCQHNLCR [P17N],1.86
10,ICPICLEMFTKPVVILKCQHNLCR [P17K],1.93
11,ICPICLEMFTKPVVILQCQHNLCR [P17Q],2
12,ICPICLEMFTKPVVILFCQHNLCR [P17F],2.53
13,ICPICLEMFTKPVVILRCQHNLCR [P17R],2.17
14,ICPICLEMFTKPVVILSCQHNLCR [P17S],2.91
15,ICPICLEMFTKPVVILLCQHNLCR [P17L],2.44
16,ICPICLEMFTKPVVILGCQHNLCR [P17G],1.83
17,ICPICLEMFTKPVVILCCQHNLCR [P17C],1.8
18,ICPICLEMFTKPVVILACQHNLCR [P17A],1.97
19,ICPICLEMFTKPVVILECQHNLCR [P17E],2.62
20,ICPICLEMFTKPVVILDCQHNLCR [P17D],2.27
21,ICPICLEMFTKPVVILVCQHNLCR [P17V],2.33
22,ICPICLEMFTKPVVILMCQHNLCR [P17M],1.7
23,ICPICLEMFTKPVVILHCQHNLCR [P17H],2.35
24,ICPICLEMFTKPVVILTCQHNLCR [P17T],2.32

row,Variant,protein stability index
1,ICPICLEMFTKPVVILYCQHNLCR [P17Y],1.99
2,ICPICLEMFTKPVVILWCQHNLCR [P17W],2.31
3,ICPICLEMFTKPVVTLPCQHNLCR [I15T],2.88
4,ICPICLEMFTKPVVYLPCQHNLCR [I15Y],2.02
5,ICPICLEMFTKPVVQLPCQHNLCR [I15Q],3.22
6,ICPICLEMFTKPVVLLPCQHNLCR [I15L],2.6
7,ICPICLEMFTKPVVSLPCQHNLCR [I15S],2.74
8,ICPICLEMFTKPVVMLPCQHNLCR [I15M],2
9,ICPICLEMFTKPVVRLPCQHNLCR [I15R],2.18
10,ICPICLEMFTKPVVVLPCQHNLCR [I15V],2.14
11,ICPICLEMFTKPVVKLPCQHNLCR [I15K],2.09
12,ICPICLEMFTKPVVELPCQHNLCR [I15E],3.32
13,ICPICLEMFTKPVVPLPCQHNLCR [I15P],2.69
14,ICPICLEMFTKPVVDLPCQHNLCR [I15D],2.81
15,ICPICLEMFTKPVVCLPCQHNLCR [I15C],2.71
16,ICPICLEMFTKPVVNLPCQHNLCR [I15N],2.5
17,ICPICLEMFTKPVVGLPCQHNLCR [I15G],2.53
18,ICPICLEMFTKPVVWLPCQHNLCR [I15W],1.85
19,ICPICLEMFTKPVVALPCQHNLCR [I15A],2.84
20,ICPICLEMFTKPVVHLPCQHNLCR [I15H],2.38
21,ICPICLEMFTKPVVFLPCQHNLCR [I15F],2.32
22,ICPICLEMFTMPVVILPCQHNLCR [K11M],1.94
